Test results published in article PMC5887453 (Nucleic Acids Research, 2018).
Substitutions are numbered along the chain they refer to.

Key:
Experiment in all cases: native gel or EMSA
PhoEF-2 L214S/V216S = target: T1, PhoEF-2 L214S/V216S (Pyrococcus horikoshii, UniProt O59521 1-732, L214S | V216S)
T1 sequence (looked up): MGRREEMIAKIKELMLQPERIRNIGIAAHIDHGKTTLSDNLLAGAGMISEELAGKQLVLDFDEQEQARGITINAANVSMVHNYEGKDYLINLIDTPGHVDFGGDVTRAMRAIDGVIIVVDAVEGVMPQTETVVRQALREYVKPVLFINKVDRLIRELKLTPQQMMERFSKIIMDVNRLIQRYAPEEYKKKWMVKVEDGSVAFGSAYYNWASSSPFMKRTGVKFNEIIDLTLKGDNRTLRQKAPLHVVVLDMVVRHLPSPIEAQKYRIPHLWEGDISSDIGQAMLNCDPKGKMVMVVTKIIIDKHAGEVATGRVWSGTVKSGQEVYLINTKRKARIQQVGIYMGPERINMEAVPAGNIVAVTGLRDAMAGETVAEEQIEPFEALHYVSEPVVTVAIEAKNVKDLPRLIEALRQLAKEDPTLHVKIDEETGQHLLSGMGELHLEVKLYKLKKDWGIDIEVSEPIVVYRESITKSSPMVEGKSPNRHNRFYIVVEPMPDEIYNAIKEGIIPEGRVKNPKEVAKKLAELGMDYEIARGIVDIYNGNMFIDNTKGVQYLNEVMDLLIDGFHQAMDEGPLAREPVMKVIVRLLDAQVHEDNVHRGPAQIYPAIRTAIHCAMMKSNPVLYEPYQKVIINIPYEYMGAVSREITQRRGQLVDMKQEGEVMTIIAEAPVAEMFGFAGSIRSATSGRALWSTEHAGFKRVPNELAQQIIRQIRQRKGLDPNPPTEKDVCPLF

PhoEF-2 K225S = target: T2, PhoEF-2 K225S (Pyrococcus horikoshii, UniProt O59521 1-732, K225S)
T2 sequence (looked up): T1 sequence (looked up) with S211L, S213V, K222S

PhoEF-2 N227S = target: T3, PhoEF-2 N227S (Pyrococcus horikoshii, UniProt O59521 1-732, N227S)
T3 sequence (looked up): T1 sequence (looked up) with S211L, S213V, N224S

Measured: binding result

B1: Pyrococcus horikoshii ribosomal stalk protein P1 (natural protein, UniProt O57705 1-108, looked up)
chain: MEYVYAALLLHSVGKEINEENLKAVLQAAGVEPEEARIKALVAALEGVNIDEVIEKAAMPVAVAAAPAAAPAEAGGEEKKEEEKKEEEEKEEEVSEEEALAGLSALFG
modifications: in the SPR only: biotin on amino groups via a PEG linker (EZ-Link NHS-PEG4-Biotin)
binds: PhoEF-2 L214S/V216S | PhoEF-2 K225S | PhoEF-2 N227S
